Experimental data as given in paper PMC7004160.
pKd: −log10 of the molar value.

Columns and labels:
[1] = biological target: superfolder GFP [GFP: P42212]; assay: MST; sfGFP as the fluorescent antigen, photobody added in a dilution series; before and after photodeprotection (365 nm)
[2] = biological target: superfolder GFP [GFP: P42212]; assay: not stated; photobody 10, caged or photodeprotected, with purified sfGFP

| pKd [1] | pKd [2] | Substance |
| --- | --- | --- |
| 6.34 | – | anti-GFP NPY-photobody (construct 5), GFP-enhancer nanobody with Y37NPY, caged (VHH) |
| < 5.00 | – | anti-GFP ONBY-photobody (construct 4), GFP-enhancer nanobody with Y37ONBY, caged (VHH) |
| – | 5.64 | anti-GFP minimizer Y113ONBY-photobody (construct 10), caged (VHH) |
